The results in this text go back to patent publication US20230235333, “APTAMER FOR IL-21 AND USE THEREOF” (RIBOMIC INC, published 2023).

Residue numbers refer to the chain shown, from its start.

What all share (conditions): tags: PeproTech
The target of data set [1] is T1, IL-21 (interleukin-21) (Homo sapiens, UniProt Q9HBE4 SEQ:25-162). Briefly: cell_activity; 10 nM aptamer, scored −. The method, then:
(§1) After overnight culture, the same medium was used to seed 2×10⁴ cells per well for testing. Human IL-21 alone or a mixed solution of human IL-21 and aptamer was added thereto and the cells were cultured for 16 hr. The final concentration of human IL-21 was adjusted to 0.05 nM. After 16 hr, the culture supernatant was collected and IFN-γ contained in the supernatant was quantified by sandwich ELISA method. An ELISA Kit manufactured by R&D Systems or Diaclone was used for quantification. After quantification, the inhibitory rate was calculated using the following formula.
Whether these aptamers bind to human IL-21 and inhibit the function thereof was evaluated by a method similar to that in Example 1. Aptamers were obtained by transcription using double-stranded DNA as a template. […] In addition, “n.d.” indicates unmeasured.

Data set [2] deals with T1, IL-21 (interleukin-21). Briefly: SPR; negative control, no binding. For orientation: SPR reads the build-up and loss of mass on a sensor chip optically.
Data set [3] has as its target T1, IL-21 (interleukin-21). Briefly: cell_activity; 10 nM aptamer. The protocol:
as §1
Whether these aptamers bind to human IL-21 and inhibit the function thereof was evaluated by a method similar to that in Example 1. Aptamers were obtained by transcription using double-stranded DNA as a template. The evaluation of inhibition in the cell assay system was performed at a nucleic acid final concentration of 10 nM. […] In the Table, “n.d.” indicates unmeasured.

For data set [4], the target named is T1, IL-21 (interleukin-21). Briefly: cell_activity; 1 nM aptamer; 100.0 at 0.2 nM. The method, then: as §1
Whether these aptamers bind to human IL-21 and inhibit the function thereof was evaluated by preparing the aptamers by chemical synthesis and using a method similar to that in Example 1. The evaluation of inhibition in the cell assay system was performed at nucleic acid final concentrations of 1 nM and 0.2 nM. […] In the Table, “n.d.” indicates unmeasured.

Data set [5] addresses T1, IL-21 (interleukin-21). Briefly: cell_activity; 1 nM aptamer; 100.0% at 0.1 nM. The protocol: as §1
Whether these aptamers bind to human IL-21 and inhibit the function thereof was evaluated by preparing the aptamers by chemical synthesis and using a method similar to that in Example 1. The evaluation of inhibition in the cell assay system was performed at nucleic acid final concentrations of 1 nM and 0.1 nM. […] In the Table, “n.d.” indicates unmeasured.

The target in data set [6] is T1, IL-21 (interleukin-21). Briefly: cell_activity; IFN-gamma secretion from NK92 cells stimulated with human IL-21. The method, then:
as §1
Whether these aptamers bind to human IL-21 and inhibit the function thereof was evaluated by preparing the aptamers by chemical synthesis and using a method similar to that in Example 1. […] The evaluation of inhibition in the cell assay system was performed at nucleic acid final concentrations of 1 nM and 0.2 nM. In addition, in a cell assay system, the aptamer concentration (IC₅₀) at which IFN-γ secretion was inhibited by 50% by IL-21 stimulation was determined. In the Table, “n.d.” indicates unmeasured.

T1 sequence (Q9HBE4 25-162): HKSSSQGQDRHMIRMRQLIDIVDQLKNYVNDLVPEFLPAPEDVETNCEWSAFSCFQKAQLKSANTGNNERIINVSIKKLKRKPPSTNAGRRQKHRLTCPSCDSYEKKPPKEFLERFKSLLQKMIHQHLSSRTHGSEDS

B1: SEQ14 (ssRNA)
RNA: GGACCUUCAACACGCGAUACUCGUGAUUGCCCGUCC
modifications: 2'-F pyrimidines
Regarding B1, in the data set with IL-21 (interleukin-21) [1], the activity is 13.3 % inhibition.

B2: SEQ16 (ssRNA)
RNA: B1 RNA with U18C, A19U
modifications: 2'-F pyrimidines
Consider B2, for which the activity with IL-21 (interleukin-21) [1] was 10.7 % inhibition.

B3: SEQ15 (ssRNA)
RNA: B1 RNA with U18C
modifications: 2'-F pyrimidines
For the molecule B3, the activity with IL-21 (interleukin-21) [1] came to 10.7 % inhibition.

B4: SEQ49 negative control 51mer (ssRNA)
RNA: GGGAAGCUCCGUCGAGCUUUCCUGCAUAAGCUGUAUUGCAGCCAGCAUUUA
As to B4, in the data set with IL-21 (interleukin-21) [2], the binding result is “no binding”.

B5: SEQ39 (ssRNA)
RNA: GGACCGUCAACACGCGACUACUCGUGAUUGCCCGUCC
modifications: 2'-F all pyrimidines
The molecule B5 came in with an activity with IL-21 (interleukin-21) [3] of 56.1 % inhibition.

B6: SEQ43 (ssRNA)
RNA: B5 RNA with G6U, C32A
modifications: 2'-F all pyrimidines
With B6, in the data set with IL-21 (interleukin-21) [3], the activity came to 43.7 % inhibition.

B7: SEQ22(2) (ssRNA)
RNA: B5 RNA with G6U, A17G
modifications: as SEQ22(1) plus 2'-OMe C4,U28,U29; 3'-idT
For the molecule B7, in the data set with IL-21 (interleukin-21) [4], the activity stood at 100 % inhibition.

B8: SEQ42 (ssRNA)
RNA: B5 RNA with G6U, U22C
modifications: 2'-F all pyrimidines
B8 came in with an activity with IL-21 (interleukin-21) [3] of 39 % inhibition.

B9: SEQ40 (ssRNA)
RNA: B5 RNA with G6U, U7C
modifications: 2'-F all pyrimidines
In the data set with IL-21 (interleukin-21) [3], B9 had an activity of 42 % inhibition.

B10: SEQ41 (ssRNA)
RNA: B5 RNA with G6U, U19G
modifications: 2'-F all pyrimidines
Molecule B10 registered an activity in the data set with IL-21 (interleukin-21) [3] of 32.4 % inhibition.

B11: SEQ22(1) (ssRNA)
RNA: B5 RNA with G6U, A17G
modifications: 2'-OMe 1-3,9-14,20,21,24-27,30-32,34-37; 2'-F 4-8,15,18,19,22,23,28,29,33; 2'-OH G16,G17; 3'-idT
For B11, the activity in the data set with IL-21 (interleukin-21) [4] was 100 % inhibition.

B12: SEQ22(15) (ssRNA)
RNA: B5 RNA with G6U, A17G
modifications: as SEQ22(2) plus 5'-PEG 40 kDa; 3'-idT
B12: the activity with IL-21 (interleukin-21) [4] was 100 % inhibition.

B13: SEQ38(14) (ssRNA)
RNA: GACCUUCAACCCGCGGCUACUCGGGAUUGCCCGUC
modifications: as SEQ38(1) with PS after G15
Consider B13, for which the activity with IL-21 (interleukin-21) [5] came to 100 % inhibition.

B14: SEQ38(18) (ssRNA)
RNA: B13 RNA
modifications: as SEQ38(1) with PS after G15,G16
B14 had an activity in the data set with IL-21 (interleukin-21) [5] of 100 % inhibition.

B15: SEQ38(15) (ssRNA)
RNA: B13 RNA
modifications: as SEQ38(1) with PS after G16
Turning to B15, in the data set with IL-21 (interleukin-21) [5], the activity worked out at 100 % inhibition.

B16: SEQ38(1) (ssRNA)
RNA: B13 RNA
modifications: as SEQ38 plus 5' 40 kDa PEG
In general, IC50 refers to the midpoint of a concentration-inhibition curve. Take B16: half-maximal inhibition with IL-21 (interleukin-21) [6] (IC50) was put at 20 pM.
